According to paper PMC9755798, “Transcription factor CsESE3 positively modulates both jasmonic acid and wax biosynthesis in citrus”:

Tests used:
CsESE3 [1] = target: T1, CsESE3 (Citrus sinensis? ('Newhall' navel …, UniProt A0ACB8NL77 1-192)); assay: EMSA; EMSA as in Gong et al. 2021b; buffer, salt, pH and temperature not given; 5' FAM probes, 100 uM unlabeled competitor stocks, 7x/14x/28x excess; conditions: protein: recombinant; tags: N-terminal His (pETDuet); label: 5' FAM (top strand); blunt
CsESE3 [2] = target: T1, CsESE3; assay: EMSA; shift attenuated by excess (up to 28x) cold probe; EMSA as in Gong et al. 2021b; buffer, salt, pH and temperature not given; 5' FAM probes, 100 uM unlabeled competitor stocks, 7x/14x/28x excess; conditions: protein: recombinant; tags: N-terminal His (pETDuet); label: 5' FAM (top strand); blunt

T1 sequence (A0ACB8NL77 entry or part of it): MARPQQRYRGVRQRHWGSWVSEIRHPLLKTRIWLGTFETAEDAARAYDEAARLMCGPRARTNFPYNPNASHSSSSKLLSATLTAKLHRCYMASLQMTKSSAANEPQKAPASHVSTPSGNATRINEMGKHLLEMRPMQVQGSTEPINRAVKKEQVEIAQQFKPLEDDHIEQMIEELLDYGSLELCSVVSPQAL

B1: Probe_PLIP_Like (CsPLIP_Like promoter GCC-box) (dsDNA)
DNA 1: AAATAAACTAAGCCGCCTTGTCATATT
DNA 2: AATATGACAAGGCGGCTTAGTTTATTT
CsESE3 [1]
  binding result: binds

B2: Probe_PLIP (CsPLIP1 promoter GCC-box) (dsDNA)
DNA 1: GAGCCTCACTAGCCGCCATTGTCCCCG
DNA 2: CGGGGACAATGGCGGCTAGTGAGGCTC
CsESE3 [2]
  binding result: binds
